Patent US20210139581A1 (Alector, published 2021)
Residue numbers refer to the chain shown, from its start.

B1: AB-14.1 (antibody, V domains shown)
VH: QVQLVQSGAEVKKPGASVKVSCKASGATFTDYNFHWVRQAPGQGLEWIGFIYPSNGITGYAQDFQGRVTMTVDTSTSTVYMELSSLRSEDTAVYYCARSDVDYFDYWGQGTLVTVSS
VL: DIQMTQSPSSLSASVGDRVTITCRASQSVSTSTYSYMHWYQQKPGKAPKLLIKYASNLESGVPSRFSGSGSGTDFTLTISSLQPEDFATYYCQHSWEIPLTFGQGTKLEIK
B2: AB-14.2 (antibody, V domains shown)
VH: B1 VH with F34Y, D63K, G66D, D100F
VL: B1 VL with S28D
B3: AB-63.18 (antibody, V domains shown)
VH: B1 VH with A16S, A27Y, F29H, F34L, D63K
VL: DIVLTQSPDSLAVSLGERATINCRASQSVSTSTYSYMHWYQQKPGQPPKLLIKYESNLESGVPDRFSGSGSGTDFTLTISSLQAEDVAVYYCQHSWEIPLTFGQGTKLEIK
B4: AB-14.6 (antibody, V domains shown)
VH: B1 VH with A27Y, F34Y, D63K
VL: B1 VL with S30G, N57A
B5: AB-14.8 (antibody, V domains shown)
VH: B1 VH with A27Y, F34Y, D63K
VL: B1 VL with S12P, S30G, E59G
B6: AB-14.4 (antibody, V domains shown)
VH: B1 VH with A27Y, F34Y, D63K, R98D, D100T
VL: B1 VL with S28D, A55V
B7: AB-14.3 (antibody, V domains shown)
VH: B1 VH with A27Y, F34Y, Y60S, D63K
VL: B1 VL with S28D, A55V
B8: AB-14.5 (antibody, V domains shown)
VH: B1 VH with A27Y, F34Y, D63K
VL: B1 VL with S28D, Q42R
B9: AB-14.7 (antibody, V domains shown)
VH: B1 VH with A27Y, F34Y, D63K
VL: B1 VL with S30G
B10: AB-63.16 (antibody, V domains shown)
VH: B1 VH with A27Y, F34Y, D63K
VL: B3 VL with S30H, E55A
B11: AB-63.17 (antibody, V domains shown)
VH: B1 VH with A27Y, F34Y, D63K
VL: B3 VL with A25G
B12: AB-H24 (antibody, V domains shown)
VH: QVQLVQSGAEVKKPGASVKISCKASGYTFTDYNLHWVRQAPGQRLEWIGFIYPSNGITGYSQKFQGKATLTVDTSASTAYMELSSLRSEDTAVYYCARSTVDYFDYWGQGTTVTVSS
VL: B1 VL
notes: Humanized variant of murine 2F5.1; also called AB-24
B13: AB-H1 (antibody, V domains shown)
VH: B1 VH with A27Y, F34L, I48M, D63K, V72R, D100T
VL: B1 VL with K53Y
notes: Humanized variant of murine 2F5.1
B14: AB-H22 (antibody, V domains shown)
VH: B12 VH with S61N, Q65K, G66N
VL: B1 VL
notes: Humanized variant of murine 2F5.1; also called AB-22
B15: AB-H26 (antibody, V domains shown)
VH: B12 VH with I20V, K67R
VL: B1 VL
notes: Humanized variant of murine 2F5.1; also called AB-26
B16: AB-H3 (antibody, V domains shown)
VH: B12 VH with R44G, S61A, K67R, A76T, T112L, V113L
VL: B1 VL with K53Y
notes: as for B13
B17: AB-H71 (antibody, V domains shown)
VH: B12 VH with V11L, I20V
VL: B3 VL with E55A
notes: Humanized variant of murine 2F5.1; also called AB-71
B18: AB-H11 (antibody, V domains shown)
VH: B12 VH with I20V, R44S
VL: B1 VL with K53Y
notes: as for B13
B19: AB-H6 (antibody, V domains shown)
VH: B1 VH with A27Y, F34L, I48M, D63K, V79A, D100T, L112T
VL: B1 VL with K53Y
notes: as for B13

The binders below were run against T1, human CD33 (human, UniProt P20138 18-259, limits assumed) (assay: BLI (ForteBio), Fab 100 nM on immobilized CD33).
T1 construct: Human CD33 immobilized on the BLI sensor tip or the BIAcore C1 chip; also called Siglec-3
T1 sequence (P20138 18-259 limits assumed): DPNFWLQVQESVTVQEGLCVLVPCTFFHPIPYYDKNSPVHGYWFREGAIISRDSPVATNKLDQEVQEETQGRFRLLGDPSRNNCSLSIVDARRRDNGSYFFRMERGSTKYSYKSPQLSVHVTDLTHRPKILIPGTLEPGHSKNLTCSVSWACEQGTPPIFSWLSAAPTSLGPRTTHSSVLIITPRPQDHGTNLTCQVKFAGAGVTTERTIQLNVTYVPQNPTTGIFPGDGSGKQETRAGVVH
Method: The affinities (KD) of the humanized antibodies for human CD33 were measured for each antibody by BioLayer Interferometry in a ForteBio assay according to standard techniques (Estep et al. (2013) MAbs 5(2): 270-8). […] The assay was carried out at room temperature.
The affinities of AB-H14 and its affinity-matured variants (Table 15) and AB-H63 and its affinity-matured variants (Table 16), for human CD33 were measured by Fortebio assay according to the method described in Example 1 above.
In the case of B1, the “Fold affinity improvement over parental Ab (AB-H14)” value is reported as 9.73 fold, the Kd is reported as ≤ 0.299 nM and the koff is reported as ≤ 0.0002 s⁻¹. For the same binder, the kon was 670000 M⁻¹ s⁻¹.
B2 was tested, and the “Fold affinity improvement over parental Ab (AB-H14)” value was 14.4 fold, the Kd was 0.202 nM and the koff was 0.0002 s⁻¹. It also gave a kon of 991000 M⁻¹ s⁻¹.
With B3 the “Fold affinity improvement over parental Ab (AB-H63)” value was 4.44 fold and the Kd was 0.613 nM.
With B4 the “Fold affinity improvement over parental Ab (AB-H14)” value was 9.83 fold, the Kd was 0.295 nM and the koff was 0.000264 s⁻¹. It also gave a kon of 894000 M⁻¹ s⁻¹.
With B5 the “Fold affinity improvement over parental Ab (AB-H14)” value was 13.6 fold, the Kd was 0.214 nM and the koff was 0.0002 s⁻¹. For the same binder, the kon was 935000 M⁻¹ s⁻¹.
With B6 the “Fold affinity improvement over parental Ab (AB-H14)” value was 13 fold, the Kd was 0.224 nM and the koff was 0.0002 s⁻¹. It also gave a kon of 895000 M⁻¹ s⁻¹.
With B7 the “Fold affinity improvement over parental Ab (AB-H14)” value was 12.3 fold, the Kd was 0.236 nM and the koff was 0.0002 s⁻¹. For the same binder, the kon was 847000 M⁻¹ s⁻¹.
With B8 the “Fold affinity improvement over parental Ab (AB-H14)” value was 13.7 fold, the Kd was 0.212 nM and the koff was 0.0002 s⁻¹. The kon was 945000 M⁻¹ s⁻¹.
With B9 the “Fold affinity improvement over parental Ab (AB-H14)” value was 11.8 fold, the Kd was 0.246 nM and the koff was 0.0002 s⁻¹. It also gave a kon of 813000 M⁻¹ s⁻¹.

What follows are binders tested against T2, human CD33 on primary human monocyte-derived dendritic cells (human, UniProt P20138 18-364) (assay: cell-based or functional assay).
T2 sequence (P20138 18-364): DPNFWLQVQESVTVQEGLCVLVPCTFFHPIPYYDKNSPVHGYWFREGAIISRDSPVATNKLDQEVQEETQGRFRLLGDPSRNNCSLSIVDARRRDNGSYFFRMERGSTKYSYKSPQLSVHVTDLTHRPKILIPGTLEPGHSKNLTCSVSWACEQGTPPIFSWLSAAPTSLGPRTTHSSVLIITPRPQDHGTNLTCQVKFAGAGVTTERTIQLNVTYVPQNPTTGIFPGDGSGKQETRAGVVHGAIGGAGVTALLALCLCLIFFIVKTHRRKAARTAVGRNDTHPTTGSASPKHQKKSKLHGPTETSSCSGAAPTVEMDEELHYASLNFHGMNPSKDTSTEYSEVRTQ
With B3 the “Maximal Downregulation (% CD33 remaining)” value was 26.8% and the “Receptor downregulation (EC50)” value was 0.0629 nM.
In the case of B10, the “Maximal Downregulation (% CD33 remaining)” value is reported as 23.4% and the “Receptor downregulation (EC50)” value is reported as 0.0293 nM.
In the case of B11, the “Maximal Downregulation (% CD33 remaining)” value is reported as 27.2% and the “Receptor downregulation (EC50)” value is reported as 0.0522 nM.

Biological target: T2, human CD33 on primary human …
Test: cell-based or functional assay
Remark: another data set of the same source
With B1 the “Maximal Downregulation (% CD33 remaining)” value was 18.6% and the “Receptor downregulation (EC50)” value was 0.0927 nM.
In the case of B2, the “Maximal Downregulation (% CD33 remaining)” value is reported as 23.8% and the “Receptor downregulation (EC50)” value is reported as 0.055 nM.
For B4, the “Maximal Downregulation (% CD33 remaining)” value was 24% and the “Receptor downregulation (EC50)” value was 0.0324 nM.
B5 was tested, and the “Maximal Downregulation (% CD33 remaining)” value was 21.2% and the “Receptor downregulation (EC50)” value was 0.0234 nM.
For B6, the “Maximal Downregulation (% CD33 remaining)” value was 27.6% and the “Receptor downregulation (EC50)” value was 0.0582 nM.
In the case of B7, the “Maximal Downregulation (% CD33 remaining)” value is reported as 25.4% and the “Receptor downregulation (EC50)” value is reported as 0.043 nM.
For B8, the “Maximal Downregulation (% CD33 remaining)” value was 26.4% and the “Receptor downregulation (EC50)” value was 0.0342 nM.
With B9 the “Maximal Downregulation (% CD33 remaining)” value was 23.4% and the “Receptor downregulation (EC50)” value was 0.0351 nM.

These binders were tested against T1, human CD33 (assay: SPR (BIAcore), Fab over CD33 on C1 chip).
Method: The affinity parameters for 10 of the 88 humanized antibodies (AB-H1, AB-H3, AB-H6, AB-H11, AB-H22, AB-H24, AB-H26, AB-H63, AB-H64, and AB-H71) were measured in a separate experiment by a more sensitive technique, surface plasmon resonance (BIAcore), and compared to Chimeric Ab and Chimeric Ab #2. BIAcore measurements were performed as follows: human CD33 was immobilized on the surface of a C1 chip, and Fabs were injected for 300 s to monitor association, followed by a 900 s flow in running buffer to monitor dissociation. The Fabs were measured at 5 concentrations: a high concentration of 27 nM and 3-fold serial dilutions.
B12 was tested, and the “Fold Change to Chimeric Ab” value was 0.27 fold, the Kd was 6.02 nM and the koff was 0.00228 s⁻¹. For the same binder, the kon was 379000 M⁻¹ s⁻¹.
With B13 the “Fold Change to Chimeric Ab” value was 1.03 fold, the Kd was 1.58 nM and the koff was 0.00186 s⁻¹. It also gave a kon of 1.18e+06 M⁻¹ s⁻¹.
B14 was tested, and the “Fold Change to Chimeric Ab” value was 0.62 fold, the Kd was 2.63 nM and the koff was 0.00182 s⁻¹. The kon was 690000 M⁻¹ s⁻¹.
With B15 the “Fold Change to Chimeric Ab” value was 0.28 fold, the Kd was 5.86 nM and the koff was 0.00234 s⁻¹. The kon was 400000 M⁻¹ s⁻¹.
B16 was tested, and the “Fold Change to Chimeric Ab” value was 1.43 fold, the Kd was 1.13 nM and the koff was 0.0014 s⁻¹. For the same binder, the kon was 1.23e+06 M⁻¹ s⁻¹.
For B17, the “Fold Change to Chimeric Ab” value was 0.87 fold, the Kd was 1.88 nM and the koff was 0.00351 s⁻¹. The kon was 1.87e+06 M⁻¹ s⁻¹.
In the case of B18, the “Fold Change to Chimeric Ab” value is reported as 1.22 fold, the Kd is reported as 1.33 nM and the koff is reported as 0.00162 s⁻¹. It also gave a kon of 1.22e+06 M⁻¹ s⁻¹.
For B19, the “Fold Change to Chimeric Ab” value was 1.18 fold, the Kd was 1.37 nM and the koff was 0.00151 s⁻¹. It also gave a kon of 1.1e+06 M⁻¹ s⁻¹.

Biological target: T2, human CD33 on primary human …
Test: cell-based or functional assay
Remark: another data set of the same source
B12 was tested, and the “Maximal Downregulation (% CD33 remaining)” value was 22.2% and the “Receptor downregulation (EC50)” value was 0.0725 nM.
B13 was tested, and the “Maximal Downregulation (% CD33 remaining)” value was 25% and the “Receptor downregulation (EC50)” value was 0.127 nM.
In the case of B14, the “Maximal Downregulation (% CD33 remaining)” value is reported as 22.6% and the “Receptor downregulation (EC50)” value is reported as 0.0901 nM.
For B15, the “Maximal Downregulation (% CD33 remaining)” value was 21.9% and the “Receptor downregulation (EC50)” value was 0.0519 nM.
For B16, the “Maximal Downregulation (% CD33 remaining)” value was 21.2% and the “Receptor downregulation (EC50)” value was 0.0933 nM.
B17 was tested, and the “Maximal Downregulation (% CD33 remaining)” value was 25.8% and the “Receptor downregulation (EC50)” value was 0.0412 nM.
In the case of B18, the “Maximal Downregulation (% CD33 remaining)” value is reported as 23.3% and the “Receptor downregulation (EC50)” value is reported as 0.0772 nM.
B19 was tested, and the “Maximal Downregulation (% CD33 remaining)” value was 20.6% and the “Receptor downregulation (EC50)” value was 0.169 nM.
